The results in this text go back to article PMC10084705.

The assay addresses SARS-CoV-2 main protease M^pro-C145A (SARS-CoV-2). Put plainly: cryo-EM structure.

In general, stoichiometry N refers to the number of molecules, sites or subunits per partner or assembly. In the case of “SARS-CoV-2 main protease M^pro-C145A (enzyme)”, the stoichiometry N stood at 2.
